Measurements published in paper PMC3767657.

Legend:
[1] = molecular target: HIV-1 integrase (IN) T174I, in virus particles (HIV-1 (NL4.3-based vector)); test: cross-linking; purified virus (50 ng p24 equivalents) in PBS/0.25% Triton X-100 treated with BS3 for 20 min at room temperature, quenched with Tris-HCl pH 7.5, reducing SDS-PAGE, anti-IN Western blot; virus produced in the presence of DMSO or 1 uM GS-B, or cell-free virus treated with GS-B
[2] = molecular target: HIV-1 integrase (IN), wild type, in virus particles (HIV-1 (NL4.3-based vector)); test: as above

## HIV-1 integrase (IN) T174I, in virus particles (enzyme)
[1]
  stoichiometry N: 2

## HIV-1 integrase (IN), wild type, in virus particles (enzyme)
[2]
  stoichiometry N: 2
